For the experiment, the target named is surface integrins on A375.S2 cells (human melanoma cells). The experiment in a line: flow cytometry on A375.S2 cells, CNTO95 10 ug/ml, no peptide (cells only: 3.36). (Flow cytometry measures light scatter and fluorescence of single cells or particles in a stream.)

CNTO95 (antibody) had a Mean Channel Fluorescence of 89.7.

For the origin of these results see patent US20050084491A1.
